# From patent publication US20070123452A1, “Method of selecting novel immunosuppressant” (Astellas Pharma Inc., priority 2002, published 2007)
# B1: HDAC4 dominant negative variant (H863L): HDAC4 variant with H863L mutation, amino acid sequence SEQ ID NO:6, expressed from plasmid (protein, listed as Homo sapiens)
# chain: MSSQSHPDGLSGRDQPVELLNPARVNHMPSTVDVATALPLQVAPSAVPMDLRLDHQFSLPVAEPALREQQLQQELLALKQKQQIQRQILIAEFQRQHEQLSRQHEAQLHEHIKQQQEMLAMKHQQELLEHQRKLERHRQEQELEKQHREQKLQQLKNKEKGKESAVASTEVKMKLQEFVLNKKKALAHRNLNHCISSDPRYWYGKTQHSSLDQSSPPQSGVSTSYNHPVLGMYDAKDDFPLRKTASEPNLKLRSRLKQKVAERRSSPLLRRKDGPVVTALKKRPLDVTDSACSSAPGSGPSSPNNSSGSVSAENGIAPAVPSIPAETSLAHRLVAREGSAAPLPLYTSPSLPNITLGLPATGPSAGTAGQQDTERLTLPALQQRLSLFPGTHLTPYLSTSPLERDGGAAHSPLLQHMVLLEQPPAQAPLVTGLGALPLHAQSLVGADRVSPSIHKLRQHRPLGRTQSAPLPQNAQALQHLVIQQQHQQFLEKHKQQFQQQQLQMNKIIPKPSEPARQPESHPEETEEELREHQALLDEPYLDRLPGQKEAHAQAGVQVKQEPIESDEEEAEPPREVEPGQRQPSEQELLFRQQALLLEQQRIHQLRNYQASMEAAGIPVSFGGHRPLSRAQSSPASATFPVSVQEPPTKPRFTTGLVYDTLMLKHQCTCGSSSSHPEHAGRIQSIWSRLQETGLRGKCECIRGRKATLEELQTVHSEAHTLLYGTNPLNRQKLDSKKLLGSLASVFVRLPCGGVGVDSDTIWNEVHSAGAARLAVGCVVELVFKVATGELKNGFAVVRPPGHHAEESTPMGFCYFNSVAVAAKLLQQRLSVSKILIVDWDVHHGNGTQQAFYSDPSVLYMSLLRYDDGNFFPGSGAPDEVGTGPGVGFNVNMAFTGGLDPPMGDAEYLAAFRTVVMPIASEFAPDVVLVSSGFDAVEGHPTPLGGYNLSARCFGYLTKQLMGLAGGRIVLALEGGHDLTAICDASEACVSALLGNELDPLPEKVLQQRPNANAVRSMEKVMEIHSKYWRCLQRTTSTAGRSLIEAQTCENEEAETVTAMASLSVGVKPAEKRPDEEPMEEEPPL
# modifications: Dominant negative mutant (H863L) of human histone deacetylase-4 (HDAC4) gene
# System: GATA-1 transcription (human GATA-1 promoter)
# Test: GATA-1 reporter gene assay in HEL cells
# Assay type: cell-based
# Details: 10 μg expression plasmid
# Experimental: Using 15 μg of pGL3-HSI-IE Pro and 10 μg of a plasmid for the expression of various HDACs or HDAC variants, 8.75×10^6 HEL cells (accession number JCRB0062, JCRB) were transformed by the electroporation method (BIO-RAD, Gene Pulser II, voltage 1750 V, charge 10 μF, 365 μL). After transformation, 2 mL of 10% FBS RPMI 1640 was added, and this mixture was dispensed to a 96-well white plate in a ratio of 50 μL/well. After cultivation under conditions of 37° C., 5% CO2 and saturated humidity for 3 hours, 10% FBS RPMI 1640 medium was added at 50 μL/well. After cultivation under conditions of 37° C., 5% CO2 and saturated humidity for 8 hours, luciferase activity in cells were measured according to the manual of the Bright-Glo Luciferase Assay System, and GATA-1 transcriptional activity was measured using a multi-label counter.
# A mixture of four kinds of HDAC4-targeted siRNA, i.e., siGENE HDAC4 SMARTpool (manufactured by Dharmacon Inc., marketed by B-Bridge international Inc., code number M-003497-00-05), or Non-specific Control Duplex IX (47% GC content) (manufactured by Dharmacon Inc., marketed by B-Bride international Inc., code number D-001206-09-20), and pGL3 IL2 Pro43 were transfected to Jurkat cells by the electroporation method using the same conditions as those mentioned above, and IL-2 transcriptional activity was measured. […]
molecule,measurement,value
B1,GATA-1 transcriptional activity (luciferase),GATA-1 transcription suppression was not observed
